Results as given in patent publication US20080234198A1 (Eli Lilly, published 2008).
Where a chain is given by its changes, count along the chain named.

B1: P470 (peptide)
peptide: HSDAVFTEQYTXXRXQVAAXXYLQSIXXGGPSSGAPPPS
modifications: C6-HSDAVFTEQY(OMe)TOrnK(CO(CH2)2SPEG20K)RAibQVAAAibOrnYLQSIOrnOrnGGPSSGAPPPS-NH2
B2: P410 (peptide)
peptide: B1 peptide with X13L
modifications: C6-HSDAVFTEQY(OMe)TOrnLRAibQVAAAibK(W-PEG40K)YLQSIOrnOrnGGPSSGAPPPS-NH2
B3: P495 (peptide)
peptide: B1 peptide with X13L, S25X, S39C
modifications: C6-HSDAVFTEQY(OMe)TOrnLRAibQVAAAibOrnYLQK(CO(CH2)2SPEG20K)IOrnOrnGGPSSGAPPPC(PEG20K)-NH2
B4: P545 (peptide)
peptide: B1 peptide with X13L, V17C, A19X, S25X
modifications: C6-HSDAVFTEQY(OMe)TOrnLRAibQC(PEG40K)AAbuAibOrnYLQAibIOrnOrnGGPSSGAPPPS-NH2
B5: P492 (peptide)
peptide: B1 peptide with X13L, A19X, S39C
modifications: C6-HSDAVFTEQY(OMe)TOrnLRAibQVAK(CO(CH2)2SPEG20K)AibOrnYLQSIOrnOrnGGPSSGAPPPC(PEG20K)-NH2
B6: P509 (peptide)
peptide: B1 peptide with X13L, S25X, S39C
modifications: C6-HSDAVFTEQY(OMe)TOrnLRAibQVAAAibOrnYLQAibIOrnOrnGGPSSGAPPPC(PEG40K)-NH2
B7: P473 (peptide)
peptide: B1 peptide with X13L
modifications: C6-HSDAVFTEQY(OMe)TOrnLRAibQVAAAibK(CO(CH2)2SPEG20K)YLQSIOrnOrnGGPSSGAPPPS-NH2
B8: P497 (peptide)
peptide: B1 peptide with X13L, I26X, S39C
modifications: C6-HSDAVFTEQY(OMe)TOrnLRAibQVAAAibOrnYLQSK(CO(CH2)2SPEG20K)OrnOrnGGPSSGAPPPC(PEG20K)-NH2
B9: P533 (peptide)
peptide: B1 peptide with X13L, V17X
modifications: C6-HSDAVFTEQY(OMe)TOrnLRAibQK(WPEG40K)AAAibOrnYLQSIOrnOrnGGPSSGAPPPS-NH2
B10: P478 (peptide)
peptide: B1 peptide with X13L, A18C
modifications: C6-HSDAVFTEQY(OMe)TOrnLRAibQVC(PEG40K)AAibOrnYLQSIOrnOrnGGPSSGAPPPS-NH2
B11: P503 (peptide)
peptide: B1 peptide with X13L, I26C, S39C
modifications: C6-HSDAVFTEQY(OMe)TOrnLRAibQVAAAibOrnYLQSC(PEG20K)OrnOrnGGPSSGAPPPC(PEG20K)-NH2
B12: P501 (peptide)
peptide: B1 peptide with X13L, Q24C, S39C
modifications: C6-HSDAVFTEQY(OMe)TOrnLRAibQVAAAibOrnYLC(PEG20K)SIOrnOrnGGPSSGAPPPC(PEG20K)-NH2
B13: P535 (peptide)
peptide: B1 peptide with X13L, I26X
modifications: C6-HSDAVFTEQY(OMe)TOrnLRAibQVAAAibOrnYLQSK(WPEG40K)OrnOrnGGPSSGAPPPS-NH2
B14: P511 (peptide)
peptide: B1 peptide with X13L, A19X, S25X, S39C
modifications: C6-HSDAVFTEQY(OMe)TOrnLRAibQVAAbuAibOrnYLQAibIOrnOrnGGPSSGAPPPC(PEG40K)-NH2
B15: P543 (peptide)
peptide: B1 peptide with X13L, V17L, A19X, I26C
modifications: C6-HSDAVFTEQY(OMe)TOrnLRAibQLAAbuAibOrnYLQSC(PEG40K)OrnOrnGGPSSGAPPPS-NH2
B16: P541 (peptide)
peptide: HSDAVFTEQYTXLRXQLAXXXYLQXCXXGGPSSGAPPPS
modifications: C6-HSDAVFTEQY(OMe)TOrnLRAibQLAAbuAibOrnYLQAibC(PEG40K)OrnOrnGGPSSGAPPPS-NH2
B17: P517 (peptide)
peptide: HSDAVFTEQYTXLRXQLAXXXYLQXIXXGGPSSGAPPPCC
modifications: C6-HSDAVFTEQY(OMe)TOrnLRAibQLAAbuAibOrnYLQAibIOrnOrnGGPSSGAPPPC(PEG20K)C(PEG20K)-NH2
B18: P519 (peptide)
peptide: B17 peptide with X19A, L23X
modifications: C6-HSDAVFTEQY(OMe)TOrnLRAibQLAAAibOrnYAibQAibIOrnOrnGGPSSGAPPPC(PEG20K)C(PEG20K)-NH2
B19: P513 (peptide)
peptide: B17 peptide with X19A, L23X, X25S
modifications: C6-HSDAVFTEQY(OMe)TOrnLRAibQLAAAibOrnYAibQSIOrnOrnGGPSSGAPPPC(PEG20K)C(PEG20K)-NH2
B20: P521 (peptide)
peptide: B17 peptide with L23X, X25S
modifications: C6-HSDAVFTEQY(OMe)TOrnLRAibQLAAbuAibOrnYAibQSIOrnOrnGGPSSGAPPPC(PEG20K)C(PEG20K)-NH2
B21: P454 (peptide)
peptide: HSDAVFTEQYTXLRXQVAAXXYLQSIXXXGGPSSGAPPPS
modifications: not fully specified; C6-HSDAVFTEQY(OMe)TOrnLRAibQVAAAibOrnYLQSIOrnK(WPEG40K)OrnGGPSSGAPPPS-NH2
B22: P505 (peptide)
peptide: B21 peptide with X28C, S40C
modifications: C6-HSDAVFTEQY(OMe)TOrnLRAibQVAAAibOrnYLQSIOrnC(PEG20K)OrnGGPSSGAPPPC(PEG20K)-NH2
B23: P499 (peptide)
peptide: B21 peptide with S40C
modifications: C6-HSDAVFTEQY(OMe)TOrnLRAibQVAAAibOrnYLQSIOrnK(CO(CH2)2SPEG20K)OrnGGPSSGAPPPC(PEG20K)-NH2

Legend:
human VPAC2 receptor [1] = target: T1, human VPAC2 receptor (human, UniProt P41587 24-438); test: filter binding, VPAC2 cell membranes, displacement of 125I-VIP
T1 construct: whole, on cells; CHO-S cell line stably expressing human VPAC2 (cAMP assays)
T1 sequence (looked up): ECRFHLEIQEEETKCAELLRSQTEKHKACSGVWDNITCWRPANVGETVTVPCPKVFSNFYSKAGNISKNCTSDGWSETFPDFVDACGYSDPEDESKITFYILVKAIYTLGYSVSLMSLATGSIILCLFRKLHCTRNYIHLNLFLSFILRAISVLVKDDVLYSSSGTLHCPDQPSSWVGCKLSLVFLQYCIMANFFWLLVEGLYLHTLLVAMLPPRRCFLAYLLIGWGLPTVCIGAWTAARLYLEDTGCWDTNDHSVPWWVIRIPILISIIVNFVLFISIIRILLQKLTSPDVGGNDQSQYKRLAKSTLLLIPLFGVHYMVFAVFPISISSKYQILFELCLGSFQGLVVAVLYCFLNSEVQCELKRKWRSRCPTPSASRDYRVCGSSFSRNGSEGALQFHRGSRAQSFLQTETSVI
Method: Binding assays: Membrane prepared from a stable VPAC2 cell line (see Example 3) or from cells transiently transfected with human VPAC1 or PAC1 are used.
The assay plate is filled with 25 μL assay buffer, 25 μL membranes (2.5 μg) suspended in assay buffer, 25 μL agonist in assay buffer, and 25 μL tracer (about 40000 cpm) in assay buffer. The filled plate is incubated for 1 hour with shaking.
The transfer from assay plate to filter plate is conducted. The blocking buffer is aspirated by vacuum filtration and washed two times with flush buffer. 90 μL is transferred from the assay plate to the filter plate. The 90 μL transferred from assay plate is aspirated and washed three times with 200 μL flush buffer. The plastic support is removed. It is dried for 1 hour at 60° C. 30 μL Microscint is added. The count is performed.

rat VPAC2 receptor = target: T2, rat VPAC2 receptor (rat, UniProt P35000 23-437); test: cell-based or functional assay
T2 sequence (looked up): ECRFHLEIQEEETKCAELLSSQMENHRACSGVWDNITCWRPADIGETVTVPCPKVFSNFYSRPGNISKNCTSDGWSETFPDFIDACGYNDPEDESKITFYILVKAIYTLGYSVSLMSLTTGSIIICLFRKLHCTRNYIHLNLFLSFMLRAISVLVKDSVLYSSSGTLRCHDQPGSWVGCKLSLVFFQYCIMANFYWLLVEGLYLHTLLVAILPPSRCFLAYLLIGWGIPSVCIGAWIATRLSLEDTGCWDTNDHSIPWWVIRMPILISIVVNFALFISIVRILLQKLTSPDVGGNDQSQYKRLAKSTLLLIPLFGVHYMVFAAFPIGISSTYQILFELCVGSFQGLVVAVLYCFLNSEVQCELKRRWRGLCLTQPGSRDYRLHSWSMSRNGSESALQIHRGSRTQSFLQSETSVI

rat VPAC1 receptor = target: T3, rat VPAC1 receptor (rat, UniProt P30083 31-459); test: cell-based or functional assay
T3 sequence (looked up): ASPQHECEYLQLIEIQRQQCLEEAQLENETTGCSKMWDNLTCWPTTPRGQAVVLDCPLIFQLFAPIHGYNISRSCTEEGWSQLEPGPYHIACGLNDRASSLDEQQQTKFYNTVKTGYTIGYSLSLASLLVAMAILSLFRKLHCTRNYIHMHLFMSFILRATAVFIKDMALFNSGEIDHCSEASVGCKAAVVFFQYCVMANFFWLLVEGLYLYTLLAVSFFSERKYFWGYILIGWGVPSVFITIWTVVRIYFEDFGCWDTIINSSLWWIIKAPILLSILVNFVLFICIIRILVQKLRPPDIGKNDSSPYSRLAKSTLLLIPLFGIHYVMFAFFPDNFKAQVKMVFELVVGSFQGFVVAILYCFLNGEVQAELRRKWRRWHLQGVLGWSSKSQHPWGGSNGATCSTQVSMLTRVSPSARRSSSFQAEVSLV

human VPAC2 receptor [2] = target: T1, human VPAC2 receptor; test: cell-based or functional assay

Row | Binder | IC50 (human VPAC2 receptor [1]) | Rat VPAC2 Receptor: DiscoveRx: (EC50; nM) (rat VPAC2 receptor) | Rat VPAC1 Receptor: DiscoveRx: (EC50; nM) (rat VPAC1 receptor) | Human VPAC2 Receptor: Alphascreen (EC50; nM) (human VPAC2 receptor [2]) | Human VPAC2 Receptor: DiscoveRx (EC50; nM) (human VPAC2 receptor [2])
1 | B1 | 263 nM | 111 nM | > 1000 nM | 83.3 nM | –
2 | B2 | 264 nM | 318 nM | > 1000 nM | 129 nM | –
3 | B3 | 142 nM | – | – | 117 nM | –
4 | B4 | 79.9 nM | 99.5 nM | 380 nM | 45 nM | –
5 | B5 | 156 nM | 963 nM | > 4000 nM | 510 nM | –
6 | B6 | 11.2 nM | 28.2 nM | 328 nM | 13 nM | –
7 | B7 | 256 nM | 25.5 nM | > 1000 nM | 26.5 nM | –
8 | B8 | 146 nM | 345 nM | > 1000 nM | 176 nM | –
9 | B9 | – | – | – | 2380 nM | –
10 | B10 | 30 nM | 120 nM | 2050 nM | 49.9 nM | –
11 | B11 | 41.5 nM | 520 nM | > 4000 nM | 147 nM | –
12 | B12 | 111 nM | 272 nM | > 1000 nM | 131 nM | –
13 | B13 | 145 nM | 318 nM | > 1000 nM | 98.4 nM | –
14 | B14 | 7.2 nM | 13.9 nM | 61.9 nM | 7.6 nM | –
15 | B15 | 56.3 nM | 101 nM | 355 nM | 84.2 nM | 8.9 nM
16 | B16 | 59.8 nM | 102 nM | 665 nM | 45.8 nM | –
17 | B17 | 3.7 nM | 10 nM | 92.4 nM | 7.5 nM | –
18 | B18 | 51.6 nM | – | – | 30.3 nM | –
19 | B19 | 50.5 nM | – | – | 28.9 nM | –
20 | B20 | 67.1 nM | 33.1 nM | 602 nM | 22.1 nM | –
21 | B21 | 36.6 nM | 79.6 nM | 1230 nM | 59.9 nM | –
22 | B22 | 26.1 nM | 42.6 nM | 639 nM | 40.5 nM | –
23 | B23 | 34 nM | 68.2 nM | 804 nM | 57.7 nM | –
